The record followed here is paper PMC11302681, “Structural Basis of Directional Switching by the Bacterial Flagellum” (Research Square, 2023).

The labels stand for the following.
T1: FliF (S. Typhimurium, MS-ring protein) (S. Typhimurium (endogenous in strains …, UniProt P15928 1-560))
T1 construct: FliF, flagellar M-ring protein of Salmonella enterica serovar Typhimurium; endogenous protein in basal bodies; only its C-terminus (residues 523–560) is described in the C-ring models; also called FliFC; FliF C-terminus; source: endogenous, S. Typhimurium strains TH25455 (CCW locked) and TH25631 (CW locked), in purified basal bodies
T1 sequence (looked up): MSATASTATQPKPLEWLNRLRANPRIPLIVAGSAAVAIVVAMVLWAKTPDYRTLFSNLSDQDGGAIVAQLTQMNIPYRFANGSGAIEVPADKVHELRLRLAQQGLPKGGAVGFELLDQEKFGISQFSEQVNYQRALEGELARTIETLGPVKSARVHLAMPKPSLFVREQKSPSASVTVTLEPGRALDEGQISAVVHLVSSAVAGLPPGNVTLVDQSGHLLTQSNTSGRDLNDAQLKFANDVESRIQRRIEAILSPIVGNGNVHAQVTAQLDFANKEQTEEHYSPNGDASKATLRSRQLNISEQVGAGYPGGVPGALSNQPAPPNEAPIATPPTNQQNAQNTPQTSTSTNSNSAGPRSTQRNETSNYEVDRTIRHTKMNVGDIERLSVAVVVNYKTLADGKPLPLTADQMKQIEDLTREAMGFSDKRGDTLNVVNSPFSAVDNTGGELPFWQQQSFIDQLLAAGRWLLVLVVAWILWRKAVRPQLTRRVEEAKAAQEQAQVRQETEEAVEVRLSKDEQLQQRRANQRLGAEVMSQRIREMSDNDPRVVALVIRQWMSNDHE

B1: C. sporogenes FliG C-terminal domain (residues 239–333, of the MotA1–262-FliG239–333 fusion) (domain or fragment)
chain: VFEDIITLDDVAIQRVLREVETKDLALALKGSSEEVANVIFRNQSKRAASSLKEDIEFLGPVRIMDVEKAQQGIVSIIRRLDEAGEIVISRGGED
B2: FliG-ΔPAA (S. Typhimurium, CW-locking deletion of residues 169–171) (natural protein)
chain: MSNLSGTDKSVILLMTIGEDRAAEVFKHLSTREVQALSTAMANVRQISNKQLTDVLSEFEQEAEQFAALNINANEYLRSVLVKALGEERASSLLEDILETRDTTSGIETLNFMEPQSAADLIRDEHPQIIATILVHLKRSQAADILALFDERLRHDVMLRIATFGGVQLAELTEVLNGLLDGQNLKRSKMGGVRTAAEIINLMKTQQEEAVITAVREFDGELAQKIIDEMFLFENLVDVDDRSIQRLLQEVDSESLLIALKGAEPPLREKFLRNMSQRAADILRDDLANRGPVRLSQVENEQKAILLIVRRLAETGEMVIGSGEDTYV
notes: FliG of Salmonella enterica serovar Typhimurium with the CW-locking PAA deletion at residues 169–171; also called CW-locked mutant; source: endogenous locus mutant, S. Typhimurium strain TH25631 (CW locked), in purified basal bodies (sucrose gradient); copies: 34
B3: FliM (S. Typhimurium) (natural protein, UniProt P26418 1-334, looked up)
chain: MGDSILSQAEIDALLNGDSDTKDEPTPGIASDSDIRPYDPNTQRRVVRERLQALEIINERFARQFRMGLFNLLRRSPDITVGAIRIQPYHEFARNLPVPTNLNLIHLKPLRGTGLVVFSPSLVFIAVDNLFGGDGRFPTKVEGREFTHTEQRVINRMLKLALEGYSDAWKAINPLEVEYVRSEMQVKFTNITTSPNDIVVNTPFHVEIGNLTGEFNICLPFSMIEPLRELLVNPPLENSRHEDQNWRDNLVRQVQHSELELVANFADIPLRLSQILKLKPGDVLPIEKPDRIIAHVDGVPVLTSQYGTVNGQYALRVEHLINPILNSLNEEQPK
notes: FliM, flagellar motor switch protein of Salmonella enterica serovar Typhimurium; endogenous protein in basal bodies; The extreme N-terminus is disordered in both structures; also called FliMM; FliMC; source: endogenous, S. Typhimurium strains TH25455 (CCW locked) and TH25631 (CW locked), in purified basal bodies; copies: 34
B4: FliN (S. Typhimurium) (natural protein, UniProt P26419 1-137, looked up)
chain: MSDMNNPSDENTGALDDLWADALNEQKATTTKSAADAVFQQLGGGDVSGAMQDIDLIMDIPVKLTVELGRTRMTIKELLRLTQGSVVALDGLAGEPLDILINGYLIAQGEVVVVADKYGVRITDIITPSERMRRLSR
notes: FliN, flagellar motor switch protein of Salmonella enterica serovar Typhimurium; endogenous protein in basal bodies; Three copies of FliN in each C-ring subunit; also called FliN3; source: endogenous, S. Typhimurium strains TH25455 (CCW locked) and TH25631 (CW locked), in purified basal bodies
B5: FliG (S. Typhimurium, wild type, in the CCW-locked C-ring) (natural protein, UniProt P0A1J9 1-331, looked up)
chain: MSNLSGTDKSVILLMTIGEDRAAEVFKHLSTREVQALSTAMANVRQISNKQLTDVLSEFEQEAEQFAALNINANEYLRSVLVKALGEERASSLLEDILETRDTTSGIETLNFMEPQSAADLIRDEHPQIIATILVHLKRSQAADILALFDERLRHDVMLRIATFGGVQPAALAELTEVLNGLLDGQNLKRSKMGGVRTAAEIINLMKTQQEEAVITAVREFDGELAQKIIDEMFLFENLVDVDDRSIQRLLQEVDSESLLIALKGAEPPLREKFLRNMSQRAADILRDDLANRGPVRLSQVENEQKAILLIVRRLAETGEMVIGSGEDTYV
notes: FliG, flagellar motor switch protein of Salmonella enterica serovar Typhimurium; endogenous protein in basal bodies; residues up to 331 are named; One FliG in each of the about 34 C-ring subunits (C34 is the dominant class); also called FliGN; FliGM; source: endogenous, S. Typhimurium strain TH25455 (CCW locked, ΔcheY), in purified basal bodies (sucrose gradient); copies: 34
B6: C. sporogenes MotA (residues 1–262, of the MotA1–262-FliG239–333 fusion) (domain or fragment, Clostridium sporogenes, UniProt A0A7U4JQH9 1-262, looked up)
chain: MKKRDILTPIGFVLCFGLVLWGMASGGSNLKVFWDVASVFITIGGSMAAMLITYPMDEFKRLLIVIRQTFKDNGMSNIDVIQNFVDLSRKARREGLLSLEDAINNLTDDYMKKGLRMVVDGIEPETIREIMELEIDEMEKRHKSGADMLKTWGGYAPAFGMVGTLIGLIQMLANLTDSSTIASGMGKALITTFYGSLMANAVFNPMGANLMFKSGVEATTREMVLEGVLAIQSGVNPRIMEEKLVSYLSPPERQAYSKVQVS
notes: MotA of Clostridium sporogenes 388 (DSM 795), residues 1–262; several linker lengths were tried) to FliG 239–333 on one chain; also called MotA component; source: E. coli MT56, pT12 vector, co-expressed with MotB, purified (LMNG, Strep-Tactin XT, Superose 6)

The target in data set [1] is C. sporogenes MotB with C-terminal Twin-Strep tag (Clostridium sporogenes). The data set can be described thus: cryo-EM structure; C. sporogenes MotA1–262-FliG239–333 fusion co-expressed with MotB-Twin-Strep in E. coli, purified in LMNG; 2.4 Å map.
Data set [2] addresses C. sporogenes MotA5MotB2 stator complex (Clostridium sporogenes). The data set is described as above.
Data set [3] concerns the target B3. The data set can be described thus: cryo-EM structure; intact flagellar basal bodies with C-rings from S. Typhimurium TH25631 (fliG-ΔPAA, CW locked), assembled in cells and purified on a sucrose gradient in Triton X-100; C34 class, symmetry expansion and local refinement around 3 subunits, 4.0 Å global. As to conditions: both partners purified.
For data set [4], the target named is T1, FliF (S. Typhimurium, MS-ring protein). Described as above. To be noted: both partners purified.
Data set [5] concerns the molecule itself. The data set is described as above.
Data set [6] concerns the molecule itself. The data set can be described thus: cryo-EM structure; intact flagellar basal bodies with C-rings from S. Typhimurium TH25455 (ΔcheY, CCW locked), assembled in cells and purified on a sucrose gradient in Triton X-100; C34 class, symmetry expansion and local refinement around 3 subunits, 3.6 Å global.
Data set [7] has as its target B3. The data set is described as above. To be noted: both partners purified.
For data set [8], the target named is T1, FliF (S. Typhimurium, MS-ring protein). The description is as above. As to conditions: both partners purified.
Data set [9] concerns the molecule itself. The data set can be described thus: cryo-EM structure; C. sporogenes MotA1–262-FliG239–333 fusion co-expressed with MotB-Twin-Strep in E. coli, purified in LMNG; 2.4 Å map.

Usually stoichiometry N stands for the number of molecules, sites or subunits per partner or assembly. “C. sporogenes MotB with C-terminal Twin-Strep tag (natural protein)”: the stoichiometry N in [1] is 2. Turning to B1, the stoichiometry N in data set [2] is less than 3.

For the molecule B2, the binding result in data set [3] and in [4] was “binds” in each case. In [5], the “stoichiometry N” value turned out to be 34. Take B3: the binding result in [6] is “binds”. Take B4: the “stoichiometry N” value in data set [7] came out at 3. In addition, the binding result in data set [5] was “binds”. With B5, the binding result in data set [7] and in data set [8] was “binds” in each case. In data set [6], the “stoichiometry N” value was 34.

For the molecule B6, the “stoichiometry N” value in [9] came out at 5.
